Data published in paper PMC3944813.

Biological target: NadRh from M. tuberculosis (NadR homolog) (M. tuberculosis)
Test: SEC

Substance “NadRh from M. tuberculosis (NadR homolog) (natural protein)” has a stoichiometry N of 2.
